From patent US5106621A, “Cysteine proteinases, production and use” (priority 1987, dated 1992)

B1: bromelain (stem bromelain, EC 3.4.22.4), affinity purified from Sigma bromelain, pineapple (Ananas comosus) stem (Ananas comosus) (protein)
chain: AVPQSIDWRDYGAVTSVKNQNPCGACWAFAAIATVESIYKIKKGILEPLSEQQVLDCAKGYGCKGGWEFRAFEFIISNKGVASGAIYPYKAAKGTCKTDGVPNSAYITGYARVPRNNESSMMYAVSKQPITVAVDANANFQYYKSGVFNGPCGTSLNHAVTAIGYGQDSIIYPKKWGAKWGEAGYIRMARDVSSSSGICGIAIDPLYPTLEE
notes: purchased Sigma B 5144
B2: ananain, cysteine proteinase purified from pineapple (Ananas comosus) stem extract (Ananas comosus) (protein)
chain: VPQSIDWRDSGAVTSVKNQGRCGSCWAFASIATVESIYKIKRGNLVSLSEQQVLDCAVSYGCKGGWINKAYSFIISNKGVASAAIYPYKAAKGTCKTNGVPNSAYITRYTYVQRNNERNMMYAVSNQPIAAALDASGNFQHYKRGVFTGPCGTRLNHAIVIIGYGQDSSGKKFWIVRNSWGAGWGEGGYIRLARDVSSSFGLCGIAMDPLYPTLQS
notes: from tissue; host or cells: pineapple stem extract (from the earlier reading)

Columns and labels:
Format in all cases: biochemical, Ananas comosus
[1] = substrate: Cc1cc(=O)oc2cc(NC(=O)[C@H](CCCNC(=N)N)NC(=O)[C@H](CCCNC(=N)N)NC(=O)OCc3ccccc3)ccc12; experiment: Kinetics of hydrolysis of fluorimetric substrates by bromelain; conditions: other: bromelain, 40° C., pH 6.8 buffer, 0.007% Brij 35, substrate 2 to 100 μM, spread = standard deviation
Experimental: (§1) The enzymes used were affinity purified ananain and comosain (Examples 1 and 2) and bromelain, which was obtained from chromatography-purified Sigma bromelain (catalogue number B 5144) by affinity chromatography on a column of Sepharose-aminohexanoyl-Gly-Phe-Gly-semicarbazide, followed by dialysis into 1 mM EDTA and lyophilisation. The proteinases were standardised by E-64 titration as described in Example 8.
(§2) Ananain used for this example was obtained by the method described in Example 1: the bromelain used was as in Example 4.
(§3) For the determination of kinetic parameters Km (the Michaelis Constant) and kcat (the turnover number) of hydrolysis of Z-Phe-Arg-NHMec and Z-Arg-Arg-NHMec, measurements of the initial rates of reaction were made in 0.007% Brij 35 at 40° C. The enzymes (1×10^-11 M to 1×10^-9 M final concentration of activatable enzyme as determined by active-site titration) were activated in 0.75 ml of 4-fold concentrated buffer in a fluorimetric cuvette at 40° C. for 2 min, to which pre-warmed 0.01% Brij was added, followed by substrate to a final volume of 3.0 ml. Continuous rate assays were carried out using a temperature-controlled cell, with stirring, in the fluorimeter ([…]), standardized so that 1000 arbitrary units corresponded to 0.2 μM coumarin (i.e. at most, 10% substrate hydrolysis). Substrate concentration(s) used were in the range 2 to 100 μM. Visual inspection of the data was performed using the direct linear plot and plots of s/v against s (v being the rate of product formation). (Henderson, P. J. F., Techniques in Protein and Enzyme Biochemistry, B113, 1-43, 1978). Values of Km and Vmax (the maximum rate of product formation at a given enzyme concentration) were calculated by the method of Wilkinson, G. N., Biochem. J., 80, 324-332, 1961.

[2] = substrate: Cc1cc(=O)oc2cc(NC(=O)[C@H](CCCNC(=N)N)NC(=O)[C@H](Cc3ccccc3)NC(=O)OCc3ccccc3)ccc12; experiment: as above; conditions: other: bromelain, 40° C., pH 6.8 buffer, 0.007% Brij 35, substrate 2 to 100 μM, spread = standard deviation
Experimental: as §1, §2, §3

[3] = substrate: Cc1cc(=O)oc2cc(NC(=O)[C@H](CCCNC(=N)N)NC(=O)[C@H](CCCNC(=N)N)NC(=O)OCc3ccccc3)ccc12; experiment: Kinetics of hydrolysis of fluorimetric substrates by ananain; conditions: other: ananain, 40° C., pH 6.8 buffer, 0.007% Brij 35, substrate 2 to 100 μM, spread = standard deviation
Experimental: as §3, with “used for this example was obtained by the method described in Example 1: the bromelain used was as in Example 4. For” for “For”

[4] = substrate: Cc1cc(=O)oc2cc(NC(=O)[C@H](CCCNC(=N)N)NC(=O)[C@H](Cc3ccccc3)NC(=O)OCc3ccccc3)ccc12; experiment: as above; conditions: other: ananain, 40° C., pH 6.8 buffer, 0.007% Brij 35, substrate 2 to 100 μM, spread = standard deviation
Experimental: as §3, with “used for this example was obtained by the method described in Example 1: the bromelain used was as in Example 4. For” for “For”

Protein	Km [1]	kcat [1]	kcat/Km [1]	Km [2]	kcat [2]	kcat/Km [2]	Km [3]	kcat [3]	kcat/Km [3]	Km [4]	kcat [4]	kcat/Km [4]
B1	15.4 (±2.8) μM	27.3 (±1.9) s^-1	1.77 (±0.37) s^-1 · μM^-1	83.1 (±14.1) μM	0.14 (±0.01) s^-1	0.0016 (±0.0003) s^-1 · μM^-1						
B2							44.5 (±9.0) μM	0.323 (±0.03) s^-1	0.007 (±0.002) s^-1 · μM^-1	48.3 (±4.8) μM	7.07 (±0.3) s^-1	0.146 (±0.02) s^-1 · μM^-1
